# Laboratory results from article PMC4729479.
# Target: hemagglutinin-esterase-fusion glycoprotein (HEF) of influenza D virus D/swine/Oklahoma/1334/2011, ectodomain (influenza D virus (D/swine/Oklahoma/1334/2011))
# Assay: crystal structure
substance,measurement,value
"hemagglutinin-esterase-fusion glycoprotein (HEF) of influenza D virus D/swine/Oklahoma/1334/2011, ectodomain (domain or fragment)",stoichiometry N,3
